The values below come from the Immune Epitope Database (IEDB).

One assay concerns the target HLA-A*68:02. As to the kind of experiment: IEDB peptide-MHC binding, cellular MHC/competitive/fluorescence; ≥ and ≤ were set here for values at or beyond the usual limits of such assays.
A further assay has as its target HLA-A*02:01. As to the kind of experiment: IEDB peptide-MHC binding, purified MHC/competitive/radioactivity; ≥ and ≤ were set here for values at or beyond the usual limits of such assays.
The next assay has as its target HLA-A*02:02. The assay is described as above.
For another assay, the target named is HLA-A*02:03. Described as above.
The next assay has as its target HLA-A*02:06. The description is as above.
[1] abbreviates: source organism: Vaccinia virus WR.
The mark [2] stands for this setting: source organism: Hepacivirus hominis.
[3] abbreviates: source organism: Influenza A virus.

What is called IC50 is the point on the concentration scale where inhibition reaches its midpoint.

As to VLLPFYETL, the IC50 with HLA-A*68:02 (setting [1]) came to 24.3 µM; with HLA-A*02:01 (setting [1]) it was 0.0072 µM; with HLA-A*02:02 (setting [1]), 4.06 µM; in the assay with HLA-A*02:03 (setting [1]), 0.267 µM; in the assay with HLA-A*02:06 (setting [1]), 0.218 µM.

Turning to VLQAGITRV, the IC50 with HLA-A*68:02 (setting [2]) is 35.6 µM; in the assay with HLA-A*02:01 (setting [2]), 0.056 µM; with HLA-A*02:02 (setting [2]), 0.098 µM; with HLA-A*02:03 (setting [2]) it was 0.012 µM; with HLA-A*02:06 (setting [2]) it was 0.393 µM.

Turning to VLTHGLASV, the IC50 with HLA-A*68:02 (source organism: SARS-CoV1) is 5.42 µM; with HLA-A*02:01 (source organism: SARS-CoV1), 0.0037 µM; with HLA-A*02:02 (source organism: SARS-CoV1), 0.0096 µM; in the assay with HLA-A*02:03 (source organism: SARS-CoV1), 0.0003 µM; with HLA-A*02:06 (source organism: SARS-CoV1), 0.0014 µM.

In the case of VLTSVDIETA, the IC50 was determined as 11.4 µM with HLA-A*68:02 (setting [1]); 0.747 µM in the assay with HLA-A*02:01 (setting [1]); 0.062 µM with HLA-A*02:02 (setting [1]); 0.421 µM with HLA-A*02:03 (setting [1]); 1.41 µM with HLA-A*02:06 (setting [1]).

Consider VLWTVFHGA, for which the IC50 was determined as 34.8 µM with HLA-A*68:02 (setting [2]); 0.1 µM with HLA-A*02:01 (setting [2]); 0.759 µM with HLA-A*02:02 (setting [2]); 0.836 µM with HLA-A*02:03 (setting [2]); 0.189 µM in the assay with HLA-A*02:06 (setting [2]).

As for VMFNGVTFST, the IC50 in the assay with HLA-A*68:02 (source organism: SARS-CoV1) was found to be 13.7 µM; with HLA-A*02:01 (source organism: SARS-CoV1), 0.0085 µM; with HLA-A*02:02 (source organism: SARS-CoV1) it was 0.00069 µM; with HLA-A*02:03 (source organism: SARS-CoV1) it was 0.075 µM; in the assay with HLA-A*02:06 (source organism: SARS-CoV1), 0.131 µM.

For VMHINSPFKV, the IC50 with HLA-A*68:02 (setting [1]) was 6.27 µM; with HLA-A*02:01 (setting [1]), 0.013 µM; with HLA-A*02:02 (setting [1]), 0.06 µM; with HLA-A*02:03 (setting [1]), 0.0025 µM; in the assay with HLA-A*02:06 (setting [1]) it was 0.393 µM.

For VMPEKRNVV, the IC50 was 6.59 µM with HLA-A*68:02 (setting [1]); 0.495 µM with HLA-A*02:01 (setting [1]); 1.1 µM in the assay with HLA-A*02:02 (setting [1]); 0.023 µM with HLA-A*02:03 (setting [1]); 3.29 µM with HLA-A*02:06 (setting [1]).

For the sequence VMWKCLIRL, the IC50 in the assay with HLA-A*68:02 (setting [2]) was 7.6 µM; in the assay with HLA-A*02:01 (setting [2]), 0.053 µM; in the assay with HLA-A*02:02 (setting [2]) it was 0.377 µM; in the assay with HLA-A*02:03 (setting [2]) it was 0.823 µM; with HLA-A*02:06 (setting [2]), 0.947 µM.

In the case of VQFSILNNPV, the 50% inhibitory concentration (IC50) in the assay with HLA-A*68:02 (setting [1]) is 39.7 µM; with HLA-A*02:01 (setting [1]), 1.91 µM; with HLA-A*02:02 (setting [1]), 0.131 µM; with HLA-A*02:03 (setting [1]) it was 0.369 µM; in the assay with HLA-A*02:06 (setting [1]) it was 0.186 µM.

Regarding VTYNIKPVIV, the IC50 in the assay with HLA-A*68:02 (setting [1]) worked out at 8.34 µM; with HLA-A*02:01 (setting [1]) it was 3 µM; with HLA-A*02:02 (setting [1]), 4.92 µM; in the assay with HLA-A*02:03 (setting [1]), 0.116 µM; with HLA-A*02:06 (setting [1]), 0.358 µM.

As for WIKDIMTST, the IC50 came out at 9.48 µM with HLA-A*68:02 (setting [1]); 0.948 µM with HLA-A*02:01 (setting [1]); 0.193 µM with HLA-A*02:02 (setting [1]); 0.012 µM in the assay with HLA-A*02:03 (setting [1]); 0.136 µM with HLA-A*02:06 (setting [1]).

WLKDSAIMVA: the IC50 with HLA-A*68:02 (setting [1]) is 10.1 µM; with HLA-A*02:01 (setting [1]) it was 0.673 µM; with HLA-A*02:02 (setting [1]), 0.015 µM; with HLA-A*02:03 (setting [1]) it was 1.32 µM; with HLA-A*02:06 (setting [1]) it was 4.84 µM.

On to WMMLLIAQA, for which the IC50 with HLA-A*68:02 (setting [2]) was 15.8 µM; with HLA-A*02:01 (setting [2]), 0.075 µM; with HLA-A*02:02 (setting [2]), 0.053 µM; in the assay with HLA-A*02:03 (setting [2]), 0.047 µM; in the assay with HLA-A*02:06 (setting [2]), 0.712 µM.

YALCTLLHL: the IC50 turned out to be 5.62 µM in the assay with HLA-A*68:02 (source organism: SARS-CoV1); 0.0087 µM in the assay with HLA-A*02:01 (source organism: SARS-CoV1); 1.32 µM in the assay with HLA-A*02:02 (source organism: SARS-CoV1); 0.768 µM with HLA-A*02:03 (source organism: SARS-CoV1); 0.0015 µM with HLA-A*02:06 (source organism: SARS-CoV1).

For YIEDELRRAA, the IC50 is 24.8 µM in the assay with HLA-A*68:02 (setting [1]); 0.573 µM in the assay with HLA-A*02:01 (setting [1]); 0.628 µM in the assay with HLA-A*02:02 (setting [1]); 0.166 µM with HLA-A*02:03 (setting [1]); 0.204 µM with HLA-A*02:06 (setting [1]).

Consider YISRDELWA, for which the IC50 in the assay with HLA-A*68:02 (setting [1]) worked out at 52.7 µM; in the assay with HLA-A*02:01 (setting [1]) it was 0.75 µM; in the assay with HLA-A*02:02 (setting [1]), 0.333 µM; with HLA-A*02:03 (setting [1]) it was 0.242 µM; with HLA-A*02:06 (setting [1]), 1.2 µM.

As for YLGHSAGFT, the IC50 amounted to 8.45 µM with HLA-A*68:02 (setting [1]); 1.56 µM in the assay with HLA-A*02:01 (setting [1]); 0.874 µM in the assay with HLA-A*02:02 (setting [1]); 0.225 µM in the assay with HLA-A*02:03 (setting [1]); 4.54 µM with HLA-A*02:06 (setting [1]).

In the case of YLGHSAGFTA, the IC50 in the assay with HLA-A*68:02 (setting [1]) was 8.21 µM; in the assay with HLA-A*02:01 (setting [1]), 0.021 µM; in the assay with HLA-A*02:02 (setting [1]) it was 0.016 µM; in the assay with HLA-A*02:03 (setting [1]), 0.086 µM; with HLA-A*02:06 (setting [1]), 0.144 µM.

In the case of YLIRALTL, the IC50 with HLA-A*68:02 (setting [3]) is 9.52 µM; with HLA-A*02:01 (setting [3]), 0.607 µM; with HLA-A*02:02 (setting [3]), 0.216 µM; with HLA-A*02:03 (setting [3]), 0.145 µM; with HLA-A*02:06 (setting [3]) it was 2.52 µM.
